Laboratory results: publication PMC9328939, “A Randomized Double‐Blind Placebo‐Controlled First‐In‐Human Phase 1 Trial of TransCon PTH in Healthy Adults” (Journal of Bone and Mineral Research, 2020)
“And” between values parts separate entries of the source, which are not always exact repeats. Equal values may be shown once.

How the values were obtained:
[1] = system: healthy adults; assay: Safety and tolerability: adverse events in SAD and MAD cohorts
Method: (§1) Subjects attended a screening visit; those who met eligibility criteria were randomly assigned to a SAD or MAD cohort (n = 10/cohort; eight active and two placebo) and received a single or multiple dose(s) of TransCon PTH, respectively, via a syringe and 31G 8‐mm needle s.c. to the abdomen. […] Multiple TransCon PTH doses administered daily for 10 days ranged from 3.5 to 24 μg PTH(1‐34)/day. Throughout drug administration and for 4 days following the final dose, subjects remained housed for laboratory tests and safety monitoring.
At screening, demographic information, medical history, and concomitant medications, vital signs with height and weight, hematology, blood chemistry (including sCa, sP, and sMg), intact endogenous PTH(1‐84), 1,25‐dihydroxyvitamin D, and urine samples were collected. In addition, a limited physical examination and electrocardiogram (ECG) were performed.
Via regular vital sign checks, physical examinations, and safety laboratory tests, subjects were also monitored for adverse events (AEs) throughout the trial, including injection site reactions (erythema, ecchymosis, edema, pruritus, and pain).

[2] = system: healthy adults; assay: Pharmacodynamics: fractional excretion of calcium (FECa); format: in vivo, human; settings: despite mild hypercalcemia, normal limits approximately 0.4% to 2%
Method: Twice‐daily 12‐hour urine samples (including calcium, phosphorus, magnesium, and creatinine) were also collected. In MAD cohorts, serum samples collected from TransCon PTH‐treated and placebo‐treated subjects predose and postdose on day 14 were analyzed for anti‐PTH binding antibodies by BioAgilytix (Durham, NC, USA) using an electrochemiluminescence bridging assay. Samples were analyzed using a multitiered approach consisting of a screening assay and a confirmatory assay.

[3] = system: healthy adults; assay: Pharmacodynamics: albumin-adjusted serum calcium (sCa); format: in vivo, human
Method: as §1
The PD endpoints included albumin‐adjusted sCa, fractional excretion of calcium, sP, renal tubular maximum reabsorption of phosphate/glomerular filtration rate (TMP/GFR), intact endogenous PTH(1‐84), osteoblastic bone formation markers (serum bone‐specific alkaline phosphatase [BSAP] and P1NP), osteoclastic bone resorption markers (urine NTx and serum CTx), sMg, and 1,25‐dihydroxyvitamin D. PK samples were collected predose and at regular intervals postdose through 96 hours for the SAD cohorts and through day14 for the MAD cohorts.
Safety and PD samples were collected and analyzed by a local laboratory (SydPath Clinical Trials, Darlinghurst, Australia).

[4] = SAD cohorts administered TransCon PTH (n = 56)
[5] = SAD, Total of all TransCon PTH doses (3.5 to 124 μg), n = 56, number of subjects (%)
[6] = SAD, Total of all TransCon PTH doses, n = 56, at least possibly related, number of subjects (%)
[7] = SAD, single s.c. 3.5 μg, n = 8, number of subjects (% of cohort)
[8] = SAD, single s.c. 3.5 μg, n = 8, vasodilatory AEs at least possibly related to study drug, number of subjects (%)
[9] = SAD, single s.c. 12 μg, n = 8, at least possibly related, number of subjects (%)
[10] = SAD, single s.c. 12 μg, n = 8, number of subjects (% of cohort)
[11] = SAD, single s.c. 32 μg, n = 8, at least possibly related, number of subjects (%)
[12] = SAD, single s.c. 32 μg, n = 8, number of subjects (% of cohort)
[13] = SAD, single s.c. 48 μg, n = 8, at least possibly related, number of subjects (%)
[14] = SAD, single s.c. 48 μg, n = 8, number of subjects (% of cohort)
[15] = SAD, single s.c. 72 μg, n = 8, at least possibly related, number of subjects (%)
[16] = SAD, single s.c. 72 μg, n = 8, number of subjects (% of cohort)
[17] = SAD, single s.c. 100 μg, n = 8, at least possibly related, number of subjects (%)
[18] = SAD, single s.c. 100 μg, n = 8, number of subjects (% of cohort)
[19] = SAD, single s.c. 124 μg, n = 8, at least possibly related, number of subjects (%)
[20] = SAD, single s.c. 124 μg, n = 8, number of subjects (% of cohort)

In the case of “TransCon PTH: long-acting, essentially inactive prodrug: PTH(1-34) transiently bound to an inert 40 kDa mPEG carrier via a proprietary autocleaving linker”, the “Tachycardia/palpitations (%)” value ([1]; MAD, Total of all TransCon PTH doses, n = 50, at least possibly related, number of subjects (%)) was 5 (10.0) %, the “maximum tolerable dose (MTD)” value ([1]; MAD, healthy volunteers, daily s.c. x 10 days) was 20 μg PTH(1-34)/day and the “discontinuation of the trial due to an AE” value ([1]; SAD and MAD cohorts) was “No subjects”. For the same substance, the “drug-related SAEs or severe AEs” value ([1]; SAD and MAD cohorts) was “no drug‐related SAEs or severe AEs”, the “physical examination, ECG, standard safety laboratory tests” value ([1]; SAD and MAD cohorts) was “no safety concerns were detected” and the tolerability ([1]; SAD and MAD cohorts, s.c.) was “generally well tolerated”. The “treatment-emergent AE: dizziness” value [1, 4] was 10.7%, the “treatment-emergent AE: headache” value [1, 4] was 7.1% and the “treatment-emergent AE: postural dizziness” value [1, 4] was 5.4%. For the same substance, the “maximum tolerable dose (MTD)” value ([1]; SAD cohorts, up to the top dose of 124 μg PTH(1-34)) was “No MTD was observed”, the “Any AE (%)” value [1, 5] was 41.1% and 23 (41.1) % and the “Any SAE (%)” value [1, 5] was 1 (1.8) %. The “Any drug-related AE (%)” value [1, 5] was 14 (25.0) %, the “Any moderate or severe AE (%)” value [1, 5] was 6 (10.7) % and the “Dizziness, light-headedness (including postural/orthostatic dizziness, syncope, presyncope) (%)” value [1, 6] was 4 (7.1) %. The “Tachycardia/palpitations (%)” value [1, 6] was 0 (0.0) %, the “Any AE (%)” value [1, 7] was 1 (12.5) % and the “Any SAE (%)” value [1, 7] was 0 (0) %. For the same substance, the “Any drug-related AE (%)” value [1, 7] was 1 (12.5) %, the “Any moderate or severe AE (%)” value [1, 7] was 0 (0) % and the “Dizziness, light-headedness (including postural/orthostatic dizziness, syncope, presyncope) (%)” value [1, 8] was 0 (0.0) %. The “Tachycardia/palpitations (%)” value [1, 8] was 0 (0.0) %, the “Dizziness, light-headedness (including postural/orthostatic dizziness, syncope, presyncope) (%)” value [1, 9] was 0 (0.0) % and the “Tachycardia/palpitations (%)” value [1, 9] was 0 (0.0) %. The “Any AE (%)” value [1, 10] was 3 (37.5) %, the “Any SAE (%)” value [1, 10] was 1 (12.5) % and the “Any drug-related AE (%)” value [1, 10] was 1 (12.5) %. The “Any moderate or severe AE (%)” value [1, 10] was 1 (12.5) %, the “Dizziness, light-headedness (including postural/orthostatic dizziness, syncope, presyncope) (%)” value [1, 11] was 1 (12.5) % and the “Tachycardia/palpitations (%)” value [1, 11] was 0 (0.0) %. For the same substance, the “Any AE (%)” value [1, 12] was 3 (37.5) %, the “Any SAE (%)” value [1, 12] was 0 (0) % and the “Any drug-related AE (%)” value [1, 12] was 2 (25.0) %. For the same substance, the “Any moderate or severe AE (%)” value [1, 12] was 0 (0) %, the “Dizziness, light-headedness (including postural/orthostatic dizziness, syncope, presyncope) (%)” value [1, 13] was 0 (0.0) % and the “Tachycardia/palpitations (%)” value [1, 13] was 0 (0.0) %. For the same substance, the “Any AE (%)” value [1, 14] was 6 (75.0) %, the “Any SAE (%)” value [1, 14] was 0 (0) % and the “Any drug-related AE (%)” value [1, 14] was 5 (62.5) %. For the same substance, the “Any moderate or severe AE (%)” value [1, 14] was 2 (25.0) %, the “Dizziness, light-headedness (including postural/orthostatic dizziness, syncope, presyncope) (%)” value [1, 15] was 0 (0.0) % and the “Tachycardia/palpitations (%)” value [1, 15] was 0 (0.0) %. The “Any AE (%)” value [1, 16] was 2 (25.0) %, the “Any SAE (%)” value [1, 16] was 0 (0) % and the “Any drug-related AE (%)” value [1, 16] was 0 (0.0) %. The “Any moderate or severe AE (%)” value [1, 16] was 1 (12.5) %, the “Dizziness, light-headedness (including postural/orthostatic dizziness, syncope, presyncope) (%)” value [1, 17] was 2 (25.0) % and the “Tachycardia/palpitations (%)” value [1, 17] was 0 (0.0) %. For the same substance, the “Any AE (%)” value [1, 18] was 4 (50.0) %, the “Any SAE (%)” value [1, 18] was 0 (0) % and the “Any drug-related AE (%)” value [1, 18] was 3 (37.5) %. The “Any moderate or severe AE (%)” value [1, 18] was 1 (12.5) %, the “Dizziness, light-headedness (including postural/orthostatic dizziness, syncope, presyncope) (%)” value [1, 19] was 1 (12.5) % and the “Tachycardia/palpitations (%)” value [1, 19] was 0 (0.0) %. The “Any AE (%)” value [1, 20] was 4 (50.0) %, the “Any SAE (%)” value [1, 20] was 0 (0) % and the “Any drug-related AE (%)” value [1, 20] was 2 (25.0) %. For the same substance, the “Any moderate or severe AE (%)” value [1, 20] was 1 (12.5) %, the “FECa (spot)” value ([2]; MAD cohorts, daily doses x 10 days) was “remained essentially within normal limits” and the FECa ([2]; SAD cohorts, data not shown) was “remained essentially within normal limits”. For the same substance, the “albumin-adjusted sCa on day 11” value ([3]; MAD, 24 μg PTH(1-34)/day x 10 days, n = 8, mean (± SD as printed), baseline 9.60 ± 0.06) was 10.63 ± 0.22 mg/dL and the “albumin-adjusted sCa on day 2” value ([3]; SAD, single s.c. 124 μg PTH(1-34), n = 8, mean ± SD as printed, baseline 9.43 ± 0.09) was 10.97 ± 0.20 mg/dL.
